The text below walks through data of the supplement of paper PMC11316812.

± gives the standard deviation of the averaged measurements.

One data set relates to hTERT-HMEC. The data set can be described thus: percentage of EdU-negative (G0-arrested) nuclei per well, 72 h; higher = more G0 arrest. To be noted: reference: sequence is the full UniProt precursor, the tested protein was the secreted form or ectodomain.
For a further data set, the system named is MCF7. Described as above. To be noted: reference: sequence is the full UniProt precursor, the tested protein was the secreted form or ectodomain.
Where [1] appears, read: protein concentration 0.0145714 µM.
Where [2] appears, read: protein concentration 0.145714 µM.
Where [3] appears, read: protein concentration 0.0225 µM.
The mark [4] stands for this setting: protein concentration 0.01925 µM.
[5] abbreviates: protein concentration 0.1925 µM.
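Note: secreted proteins added to cultured cells, EdU pulse at the end, nuclei found by Hoechst imaging, EdU status from nuclear versus surrounding ring intensity ratio, PBS as neutral control.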

With “MNQKTILVLLILAVITIFALVCVLLVGRGGDGGEPSQLPHCPSVSPSAQPWTHPGQSQLFADLSREELTAVMRFLTQRLGPGLVDAAQARPSDNCVFSVELQLPPKAAALAHLDRGSPPPAREALAIVFFGRQPQPNVSELVVGPLPHPSYMRDVTVERHGGPLPYHRRPVLFQEYLDIDQMIFNRELPQASGLLHHCCFYKHRGRNLVTMTTAPRGLQSGDRATWFGLYYNISGAGFFLHHVGLELLVNHKALDPARWTIQKVFYQGRYYDSLAQLEAQFEAGLVNVVLIPDNGTGGSWSLKSPVPPGPAPPLQFYPQGPRFSVQGSRVASSLWTFSFGLGAFSGPRIFDVRFQGERLVYEISLQEALAIYGGNSPAAMTTRYVDGGFGMGKYTTPLTRGVDCPYLATYVDWHFLLESQAPKTIRDAFCVFEQNQGLPLRRHHSDLYSHYFGGLAETVLVVRSMSTLLNYDYVWDTVFHPSGAIEIRFYATGYISSAFLFGATGKYGNQVSEHTLGTVHTHSAHFKVDLDVAGLENWVWAEDMVFVPMAVPWSPEHQLQRLQVTRKLLEMEEQAAFLVGSATPRYLYLASNHSNKWGHPRGYRIQMLSFAGEPLPQNSSMARGFSWERYQLAVTQRKEEEPSSSSVFNQNDPWAPTVDFSDFINNETIAGKDLVAWVTAGFLHIPHAEDIPNTVTVGNGVGFFLRPYNFFDEDPSFYSADSIYFRGDQDAGACEVNPLACLPQAAACAPDLPAFSHGGFSHN”, the “percentage of EdU-negative” value was determined as 5.32 ± 0.3% with hTERT-HMEC (setting [1]), 6.82 ± 0.15% in the data set on hTERT-HMEC (setting [2]), 22.8 ± 0.3% in the data set on MCF7 (setting [1]) and 26.8 ± 0.78% with MCF7 (setting [2]).
On to “MVTLRKRTLKVLTFLVLFIFLTSFFLNYSHTMVATTWFPKQMVLELSENLKRLIKHRPCTCTHCIGQRKLSAWFDERFNQTMQPLLTAQNALLEDDTYRWWLRLQREKKPNNLNDTIKELFRVVPGNVDPMLEKRSVGCRRCAVVGNSGNLRESSYGPEIDSHDFVLRMNKAPTAGFEADVGTKTTHHLVYPESFRELGDNVSMILVPFKTIDLEWVVSAITTGTISHTYIPVPAKIRVKQDKILIYHPAFIKYVFDNWLQGHGRYPSTGILSVIFSMHVCDEVDLYGFGADSKGNWHHYWENNPSAGAFRKTGVHDADFESNVTATLASINKIRIFKGR”, for which the “percentage of EdU-negative” value came to 5.6 ± 0.99% with hTERT-HMEC (setting [3]), 6.41 ± 0.73% in the data set with hTERT-HMEC (protein concentration 0.225 µM), 24.2 ± 3.6% in the data set with MCF7 (setting [3]) and 28.079 ± 0.0073% with MCF7 (protein concentration 0.225 µM).
Turning to “MAAWSPAAAAPLLRGIRGLPLHHRMFATQTEGELRVTQILKEKFPRATAIKVTDISGGCGAMYEIKIESEEFKEKRTVQQHQMVNQALKEEIKEMHGLRIFTSVPKR [Q53S33]”, the “percentage of EdU-negative” value in the data set on hTERT-HMEC (setting [3]) was determined as 4.56 ± 0.98%; in the data set on hTERT-HMEC (protein concentration 0.225 µM), 5.94 ± 0.72%; with MCF7 (setting [3]), 26.66 ± 0.12%; with MCF7 (protein concentration 0.225 µM), 26.7 ± 1.7%.
The matching figures for “MEALPLLAATTPDHGRHRRLLLLPLLLFLLPAGAVQGWETEERPRTREEECHFYAGGQVYPGEASRVSVADHSLHLSKAKISKPAPYWEGTAVIDGEFKELKLTDYRGKYLVFFFYPLDFTFVCPTEIIAFGDRLEEFRSINTEVVACSVDSQFTHLAWINTPRRQGGLGPIRIPLLSDLTHQISKDYGVYLEDSGHTLRGLFIIDDKGILRQITLNDLPVGRSVDETLRLVQAFQYTDKHGEVCPAGWKPGSETIIPDPAGKLKYFDKLN”: 5.57 ± 1.3%, 4.84 ± 0.26%, 26.1 ± 1.3% and 27.8 ± 0.15%.
For “MMSFLLGAILTLLWAPTAQAEVLLQPDFNAEKFSGLWYVVSMASDCRVFLGKKDHLSMSTRAIRPTEEGGLHVHMEFPGADGCNQVDAEYLKVGSEGHFRVPALGYLDVRIVDTDYSSFAVLYIYKELEGALSTMVQLYSRTQDVSPQALKSFQDFYPTLGLPKDMMVMLPQSDACNPESKEAP [Q6UWW0]”, the “percentage of EdU-negative” value with hTERT-HMEC (setting [3]) was found to be 5.79 ± 0.094%; in the data set with hTERT-HMEC (protein concentration 0.225 µM) it was 6.89 ± 0.15%; in the data set with MCF7 (setting [3]) it was 26.2 ± 2.2%; in the data set with MCF7 (protein concentration 0.225 µM) it was 25.9 ± 0.71%.
Turning to “MRPVSVWQWSPWGLLLCLLCSSCLGSPSPSTGPEKKAGSQGLRFRLAGFPRKPYEGRVEIQRAGEWGTICDDDFTLQAAHILCRELGFTEATGWTHSAKYGPGTGRIWLDNLSCSGTEQSVTECASRGWGNSDCTHDEDAGVICKDQRLPGFSDSNVIEVEHHLQVEEVRIRPAVGWGRRPLPVTEGLVEVRLPDGWSQVCDKGWSAHNSHVVCGMLGFPSEKRVNAAFYRLLAQRQQHSFGLHGVACVGTEAHLSLCSLEFYRANDTARCPGGGPAVVSCVPGPVYAASSGQKKQQQSKPQGEARVRLKGGAHPGEGRVEVLKASTWGTVCDRKWDLHAASVVCRELGFGSAREALSGARMGQGMGAIHLSEVRCSGQELSLWKCPHKNITAEDCSHSQDAGVRCNLPYTGAETRIRLSGGRSQHEGRVEVQIGGPGPLRWGLICGDDWGTLEAMVACRQLGLGYANHGLQETWYWDSGNITEVVMSGVRCTGTELSLDQCAHHGTHITCKRTGTRFTAGVICSETASDLLLHSALVQETAYIEDRPLHMLYCAAEENCLASSARSANWPYGHRRLLRFSSQIHNLGRADFRPKAGRHSWVWHECHGHYHSMDIFTHYDILTPNGTKVAEGHKASFCLEDTECQEDVSKRYECANFGEQGITVGCWDLYRHDIDCQWIDITDVKPGNYILQVVINPNFEVAESDFTNNAMKCNCKYDGHRIWVHNCHIGDAFSEEANRRFERYPGQTSNQII”, the “percentage of EdU-negative” value with hTERT-HMEC (setting [4]) stood at 4.9 ± 0.65%; in the data set on hTERT-HMEC (setting [5]), 39.2 ± 1.2%; with MCF7 (setting [4]) it was 25.3 ± 1.3%; with MCF7 (setting [5]), 31.5 ± 2.3%.
For “MAALSRALGPLRTPAPPLWIGLFLVATGSQQSLAQPLPGNTTEATPRSLRASGSLCGPHAKAPYLCEATHEPAAARIRAQVPDTRWSRVGGQRFYSRVLSPLHRGPSGHTEASAQRSHMGKLKEPQPQDHKPGLGAS [Q6UXU0]”, the “percentage of EdU-negative” value with hTERT-HMEC (setting [3]) came out at 5.38 ± 0.31%; with hTERT-HMEC (protein concentration 0.225 µM), 5.92 ± 0.84%; in the data set with MCF7 (setting [3]), 27.9 ± 0.64%; in the data set with MCF7 (protein concentration 0.225 µM) it was 23.7 ± 2.8%.
With “MARAAALLPSRSPPTPLLWPLLLLLLLETGAQDVRVQVLPEVRGQLGGTVELPCHLLPPVPGLYISLVTWQRPDAPANHQNVAAFHPKMGPSFPSPKPGSERLSFVSAKQSTGQDTEAELQDATLALHGLTVEDEGNYTCEFATFPKGSVRGMTWLRVIAKPKNQAEAQKVTFSQDPTTVALCISKEGRPPARISWLSSLDWEAKETQVSGTLAGTVTVTSRFTLVPSGRADGVTVTCKVEHESFEEPALIPVTLSVRYPPEVSISGYDDNWYLGRTDATLSCDVRSNPEPTGYDWSTTSGTFPTSAVAQGSQLVIHAVDSLFNTTFVCTVTNAVGMGRAEQVIFVRETPNTAGAGATGGIIGGIIAAIIATAVAATGILICRQQRKEQTLQGAEEDEDLEGPPSYKPPTPKAKLEAQEMPSQLFTLGASEHSPLKTPYFDAGASCTEQEMPRYHELPTLEERSGPLHPGATSLGSPIPVPPGPPAVEDVSLDLEDEEGEEEEEYLDKINPIYDALSYSSPSDSYQGKGFVMSRAMYV”, the “percentage of EdU-negative” value in the data set with hTERT-HMEC (setting [3]) came out at 4.75 ± 0.29%; with hTERT-HMEC (protein concentration 0.225 µM), 5.33 ± 0.83%; in the data set on MCF7 (setting [3]), 21.9 ± 1.3%; with MCF7 (protein concentration 0.225 µM), 22.8 ± 0.43%.
